The target in experiment [1] is T1, mouse p53 wild-type full length protein (mouse, UniProt P02340 1-390).
T1 construct: mature; Full length protein in ELISA; also called wildtype mouse p53; p53 of wild-type MEFs
The experiment can be described thus: ELISA on coated full-length protein. (In general: An ELISA detects its analyte on a solid surface through an enzyme-linked reagent.)

Experiment [2] has as its target T2, SEQ ID NO 136.
T2 peptide: SSTHYSWSLMDA
The experiment in a line: phage display: peptide captured by the antibody (FIG. 8B taken as clone 3G11 by paragraph 561).

Experiment [3] addresses T3, SEQ ID NO 137.
T3 peptide: GPSCHYCFTGLP
Described as above.

Experiment [4] concerns the target T4, SEQ ID NO 140.
T4 peptide: FSVRPFHYAQDN
The experiment is described as above.

Experiment [5] deals with T5, SEQ ID NO 141.
T5 peptide: FSVPFDRIQETP
Described as above.

In experiment [6] the target is T6, SEQ ID NO 142.
T6 peptide: FSVRPYDPQIEN
The experiment is described as above.

Experiment [7] concerns the target T7, SEQ ID NO 138.
T7 peptide: WSVPPGRHIHYS
The description is as above.

In experiment [8] the target is T8, SEQ ID NO 139.
T8 peptide: FSVPSGHYIRAN
The description is as above.

Experiment [9] addresses T9, FSVPFDRIQETP
T9 construct: also called line 7 under 3G11
T9 peptide: FSVPFDRIQETP
The experiment in a line: phage display, random 12-mers on M13 pIII, panning on the antibody.

Experiment [10] has as its target T10, GPSCHYCFTGLP
T10 construct: also called lines 2 and 3 under 3G11
T10 peptide: GPSCHYCFTGLP
The description is as above.

The target of experiment [11] is T11, FSVRPYDPQIEN
T11 construct: also called line 9 under 3G11
T11 peptide: FSVRPYDPQIEN
Described as above.

In experiment [12] the target is T12, FSVPSGHYIRAN
T12 construct: also called line 10 under 3G11
T12 peptide: FSVPSGHYIRAN
Described as above.

Experiment [13] concerns the target T13, SSTHYSWSLMDA
T13 construct: also called line 1 under 3G11
T13 peptide: SSTHYSWSLMDA
The description is as above.

The target of experiment [14] is T14, WSVPPGRHIHYS
T14 construct: also called lines 4 and 5 under 3G11
T14 peptide: WSVPPGRHIHYS
The experiment is described as above.

Experiment [15] addresses T15, FSVRPFHYAQDN
T15 construct: also called line 8 under 3G11
T15 peptide: FSVRPFHYAQDN
The experiment is described as above.

The target in experiment [16] is T16, human p53 wild-type full length protein (human, UniProt P04637 1-393).
T16 construct: Full length recombinant protein in ELISA; expressed in transfected H1299 cells or endogenous in MCF7/A549 cells and tumour samples in blots, IP, IF and IHC; also called wildtype p53; WT HP53
The experiment in a line: ELISA on coated full-length protein.

Experiment [17] deals with T17, SEQ ID NO 106.
T17 peptide: SSRPMAHWPIKV
The experiment in a line: phage display: peptide captured by the antibody from an M13 random 12-mer library (FIG. 7B = clone 4H2 by paragraph 523).

The target in experiment [18] is T18, SEQ ID NO 108.
T18 peptide: SNTPHWPGRPGI
Described as above.

Experiment [19] addresses T19, SEQ ID NO 104.
T19 peptide: ELWQNVRPFLWV
The description is as above.

The target of experiment [20] is T20, SEQ ID NO 109.
T20 peptide: INTPRDWAYGGL
The experiment is described as above.

The target in experiment [21] is T21, SEQ ID NO 105.
T21 peptide: SRPADHWPRHNE
The description is as above.

Experiment [22] concerns the target T22, SNTPHWPGRPGI
T22 construct: also called line 5 under 4H2
T22 peptide: SNTPHWPGRPGI
The experiment in a line: phage display, random 12-mers on M13 pIII, panning on the antibody.

Experiment [23] has as its target T23, ELWQNVRPFLWV
T23 construct: also called line 1 under 4H2
T23 peptide: ELWQNVRPFLWV
The experiment is described as above.

The target of experiment [24] is T24, SRPADHWPRHNE
T24 construct: also called line 2 under 4H2
T24 peptide: SRPADHWPRHNE
Described as above.

The target of experiment [25] is T25, SSRPMAHWPIKV
T25 construct: also called line 3 under 4H2
T25 peptide: SSRPMAHWPIKV
The experiment is described as above.

The target in experiment [26] is T26, SEQ ID NO 116.
T26 peptide: DNASSSKVHHGH
The experiment can be described thus: phage display: peptide captured by the antibody from an M13 random 12-mer library (FIG. 7C = clone 13E4 by paragraph 523).

For experiment [27], the target named is T27, SEQ ID NO 114.
T27 peptide: YHVGGILGRLFM
The experiment is described as above.

The target in experiment [28] is T28, SEQ ID NO 115.
T28 peptide: YNTFPYHLGYTL
Described as above.

Experiment [29] has as its target T29, SEQ ID NO 117.
T29 peptide: TFVHGNTWTIVN
The experiment is described as above.

For experiment [30], the target named is T30, SEQ ID NO 113.
T30 peptide: GKTYSYHMQLYT
The description is as above.

Experiment [31] deals with T31, YHVGGILGRLFM
T31 construct: also called line 3 under 13E4
T31 peptide: YHVGGILGRLFM
The experiment in a line: phage display, random 12-mers on M13 pIII, panning on the antibody.

In experiment [32] the target is T32, GKTYSYHMQLYT
T32 construct: also called line 4 under 13E4
T32 peptide: GKTYSYHMQLYT
Described as above.

Experiment [33] addresses T33, DNASSSKVHHGH
T33 construct: also called line 2 under 13E4
T33 peptide: DNASSSKVHHGH
Described as above.

The target of experiment [34] is T34, YNTFPYHLGYTL
T34 construct: also called line 5 under 13E4
T34 peptide: YNTFPYHLGYTL
The description is as above.

Experiment [35] deals with T35, TFVHGNTWTIVN
T35 construct: also called line 1 under 13E4
T35 peptide: TFVHGNTWTIVN
Described as above.

In experiment [36] the target is T36, 267 RNSFEVHVCACPG 279 (not fully specified; cysteine pairing not given here).
T36 construct: also called unsubstituted 13-mer of the alanine scan on R273H
T36 peptide: Biotin-RNSFEVHVCACPG
The experiment in a line: ELISA on biotinylated 13-mer on streptavidin plate, antibody 1 ug/ml, O.D. 650 nm.

Ends that are not written are not given here. * marks the point of attachment. Biotin = O=C1N[C@H]2[C@H](CS[C@H]2CCCCC(=O)*)N1

B1: anti-R248Q p53 antibody clone 3G11 (antibody, V domains shown)
VH: DVQLQQSGPELVKPGASVKMSCKASGYTFTDYYVKWVKQSPGQSLEWIGDIHPKNGGTNYNQKFKGKAALTVDKSSSTAYMQLNSLTSEDSAVYFCAKMGGYDDYWGQGTTLTVSS
VL: not shown
Take B1: the binding result in [1] is on record as “no binding (tested: neat supernatant)”; in [2] it was “binds”; in experiment [3] it was “binds”; in experiment [4], “binds”; in experiment [5], “binds”; in experiment [6], “binds”. For the same molecule, the binding result in experiment [7], in experiment [8], in experiment [9], in experiment [10], in experiment [11] and in experiment [12] was “binds” throughout. For the same molecule, the binding result in [13], in experiment [14] and in [15] was “binds” each time.

B2: mouse human chimeric anti-R248Q p53 antibody clone MH 3G11 (antibody, V domains shown)
VH: B1 VH
VL: not shown
notes: also called chimeric 3G11
On to B2, for which, in experiment [1], the binding result is given as “no binding (tested: 1 ng/µl)”.

B3: anti-R248Q p53 antibody clone 4H2 (antibody, V domains shown)
VH: QVQLKQSGPELVKPGASVKMSCKASGYTFTDYYLKWVRQSHGKSLEWIGDIDPKNGGTNYNQKFKGKATLTVDKSSSTAYMQLNSLTSEDSAVYYCAKQGGFDDYWGQGTTLTVSS
VL: not shown
notes: Mouse monoclonal antibody from hybridoma
Turning to B3, the binding result in experiment [1] was “no binding (tested: neat supernatant)”; in experiment [16] it was “no binding (tested: neat supernatant)”; in experiment [17], “binds”; in [18], “binds”; in experiment [19], “binds”; in [20], “binds”. For the same molecule, the binding result in experiment [21], in [22], in [23], in experiment [24] and in [25] was “binds” each time.

B4: mouse human chimeric anti-R248Q p53 antibody clone MH 4H2 (antibody, V domains shown)
VH: B3 VH
VL: not shown
notes: also called chimeric 4H2
B4: the binding result in [1] is recorded as “no binding (tested: 1 ng/µl)”.

B5: anti-R273H p53 antibody clone 13E4 (antibody, V domains shown)
VH: EVQLLETGGDLVTPGGSLKLSCAASGFSFSDYYMYWVRQTPEKRLEWVATISVGGTYTFYSDNVKGRFVISRDNARKNLHLEMNSLKSEDAAMYYCVRDGNDGKFLGYWGQGTFVTVTV
VL: DIVMTQSPLSLPVNLGDQVSLSCRSSQSIVHNNGDTYLEWYLQKPGQSPKLLIYKVSNRFSGVPDRFSGSGSGTDFTLKISRVEAEDLGIYYCFQGSHLPLTFGSGTKLELK
notes: Mouse monoclonal antibody from hybridoma; also called 13E4 mAb
In the case of B5, the binding result in experiment [26], in experiment [27], in [28], in [29], in experiment [30] and in experiment [31] was “binds” in each case. Further, the binding result in experiment [32], in experiment [33], in experiment [34], in experiment [35] and in [36] was “binds” in each case.

The record behind these values is patent US20250263475A1 (AGENCY FOR SCIENCE TECHNOLOGY AND RESEARCH, published 2025).
